Results: patent US20160237122A1

What was measured:
[1] = target: HIV-1 gp120 protein (Fitzgerald Industries International Inc, USA) (HIV-1); experiment: dot blot: value derived from 1 pg in 1 mL of 10-fold diluted human serum
[2] = target: HIV-1 gp120 protein (Fitzgerald Industries International Inc, USA) (HIV-1); experiment: fusion peptide on Ni-NTA magnetic agarose beads, detected with FITC-labeled gp120 antibody, fluorescence microscopy
[3] = target: HIV-1 gp120 protein (Fitzgerald Industries International Inc, USA) (HIV-1); experiment: dot blot: 5 ng fusion F23 peptide on nitrocellulose, gp120 in 10-fold diluted human serum, HRP-conjugated gp120 antibody, chemiluminescence

For MIHHHHHHEMISLIAALAVIEGRCNLHFCQLRCKSLGLLGKCAGSFCACV (designed binder) [fusion F23 peptide (His6-tag, 15 amino acid linker derived from E. coli DHFR, F23)], the detectable gp120 concentration in human blood [1] was 10 pg/mL, the gp120 concentration detected [2] was 10 ng/µL and the detection limit of gp120 [3] was 1 pg/mL.
